Here are results for 20 molecules from patent US5852187A, “Molecular cloning of the ovine pituitary growth hormone releasing hormone receptor” (priority 1996, dated 1998).

Several values for one entry are separate records, joined by “and”; a condition that tells them apart may be missing. Identical values can stand only once. Entries after “also recorded” stand apart in the source; their conditions may differ. Like-named read-outs stand apart in the source and are kept apart here. Where no end group is shown, it is not given here. [ ]: non-standard residue; d: D form. The star is where a group is joined. Nle = CCCC[C@H](N)C(=O)O; 125I = [125I]*

By Ki is commonly meant a measure of affinity in units of concentration, obtained from inhibition or displacement. Low readings indicate higher affinity, high ones lower affinity.

The subject of one assay is GHRH receptor (GHRH-R). Kind of assay: 125I-GHRHa binding assay in crude anterior pituitary membrane pellets. More on the design: species or system ovine. Conditions: for competition for the 125I-GHRHa binding site: 100 nM competing peptide; for displacement of GHRH in ovine pituitary: at 500 nM. The protocol:
Specific binding is defined as the difference in the binding seen with 20 pM iodinated analog alone and binding of the analog in the presence of 10 nM non-iodinated GHRHa.
All steps were performed at 4° C. Frozen ovine or bovine anterior pituitaries (ovine: approximately 1 gm/pituitary obtained from Dr. Ian Clarke, Melbourne, Australia; bovine: approximately 2.5 gm/pituitary special handling from Pel-Freez, of Rogers, Ark.) were washed of blood, cleaned of connective tissue and homogenized (using a Dounce homogenizer) in 50 mM HEPES buffer, 100 mM NaCl, 10 mM EDTA, 0.1 μM EGTA, pH 7.4 with 0.5 mM PMSF (phenyl methyl sulfonyl fluoride), 10 μg/ml leupeptin, 10 μg/ml pepstatin A, and 200 U/ml (units/ml) aprotinin. This buffer is used to remove endogenous GTP which might be bound to G proteins and to restore high affinity binding. The homogenate was spun at top speed in a microfuge and the supernatant discarded. The upper (membrane) layer of the pellet was then gently resuspended in binding buffer containing 50 mM Tris buffer, 5 mM EGTA, 5 mM MgCl2, 50 μg/ml alamethicin, 30 μg/ml bacitracin and other protease inhibitors as above.
1/50 pituitary equivalent per tube was incubated in binding buffer with approximately 100,000 counts of iodinated probe in a volume of 500 μl at room temperature for 1 hour. The total counts delivered and the percent of counts bound for each tube was determined with 3 to 6 replicates per experimental condition. Saturation binding profiles were analyzed with the computer program Ligand which performs a statistically weighted least squares fit to the exact ligand binding equation in nontransformed coordinates.

The target in assay [1] is dibiotinylated GHRHa (human) (UniProt P01286). Briefly: binding of iodinated biotinylated GHRHa forms to immobilized streptavidin, through the biotin group.
In assay [2] the target is monobiotinylated GHRHa (human) (UniProt P01286). The description is as above.
The test system of another assay is GHRH-R (55 kDa band). Kind of assay: Photoaffinity cross-linking / photoprobe binding in pituitary membrane pellets (gamma counting, SDS-PAGE autoradiography). On the set-up: species or system ovine. The protocol: Photoprobe binding in ovine pituitary membrane pellets was determined by γ-counting and UV induced cross-linking was examined by autoradiography of sodium dodecylsulfate polyacrylamide electrophoresis (SDS-PAGE) gels. ^125 I-GHRHa -ANB-NOS probe bound with an affinity of about one nanomole, nM (compared to about 160 picomole, pM, for GHRHa).
Photoprobe binding to membranes was evaluated with crude membrane binding assay and then analyzed further by SDS-PAGE electrophoresis to identify the binding sites. Photoprobes were incubated in the dark, photolysed for 10 minutes with a long wave (366 nm) UV lamp, and then the samples were pelleted. The pellets were counted and then extracted by boiling directly in SDS sample buffer (total SDS extracts). Alternatively, the labeled pellets were extracted in a mild detergent solution (5 mM CHAPS) centrifuged, and the chloroform/methanol concentrated supernatants denatured with SDS buffer (CHAPS extracts). These samples were then electrophoresed in SDS gels and autoradiographed.

In assay [3] the target is human GHRH receptor encoded by HAP 7.3 cDNA (human). Briefly: competition with iodinated GHRH analog, membranes of COS cells transfected with HAP 7 (FIG. 16).
Assay [4] addresses T1, GHRH-R encoded by HAP 7 cDNA (Homo sapiens, UniProt Q02643).
T1 construct: expressed in transfected cells; host or cells: Cos-1 cells (membranes), pCDM8 vector
T1 sequence (Q02643 23-423): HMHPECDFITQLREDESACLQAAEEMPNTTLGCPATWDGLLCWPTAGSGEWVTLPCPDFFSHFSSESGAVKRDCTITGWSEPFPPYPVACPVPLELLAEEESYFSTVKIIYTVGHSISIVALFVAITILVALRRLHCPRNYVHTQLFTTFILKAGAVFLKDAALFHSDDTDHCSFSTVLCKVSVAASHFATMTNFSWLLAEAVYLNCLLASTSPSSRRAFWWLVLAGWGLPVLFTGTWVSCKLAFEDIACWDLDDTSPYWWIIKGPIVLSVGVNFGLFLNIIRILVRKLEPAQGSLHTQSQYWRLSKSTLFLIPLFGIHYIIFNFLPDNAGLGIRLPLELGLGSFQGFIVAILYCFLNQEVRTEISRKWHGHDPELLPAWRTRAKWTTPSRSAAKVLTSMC
Briefly: Iodinated GHRH binding to COS cell membranes transfected with pCDM8 containing HAP 7 cDNA. The note with it: for effect on binding of iodinated GHRH: 100 nM peptide, HAP transfected COS cells or membranes.
Protocol: Cos-1 cells were transfected with the vector formed by splicing pCDM8 and HAP cDNA, and Cos-1 cell membranes were prepared 72 hours subsequently. Cos-1 cells were transfected using 10 μg of plasmid DNA per 6×10^5 cells in a 100-mm dish using the DEAE-dextran method described by Cullen. […] COS cell cultures were transfected in parallel with pCDM8 containing a cDNA encoding the rat AT1 angiotensin II receptor.

Assay [5] concerns the target T2, secretin and VIP receptors (Homo sapiens, UniProt P47872).
T2 construct: host or cells: human pancreas tissue
The note with it: at 10 μM; cited from earlier work.

In assay [6] the target is ovine pituitary growth hormone releasing hormone receptor (ovine). Briefly: displacement of GHRH and its analogs, ovine anterior pituitary tissue.
Assay [7] has as its target bovine pituitary GHRH receptor (bovine) (UniProt Q9TUJ0). Briefly: displacement of GHRH and its analogs, bovine anterior pituitary tissue.
Assay [8] deals with ovine pituitary growth hormone releasing hormone receptor (ovine). Kind of assay: saturation binding analysed with the program Ligand, crude pituitary membrane pellets.
For assay [9] the target is unchanged. Briefly: binding and displacement of iodinated GHRH analog, ovine pituitary membranes (FIG. 17).
For assay [10] the target is unchanged. Kind of assay: saturation binding with increasing unlabeled GHRHa, crude pituitary membrane pellets (FIG. 2).
Assay [11] has the same target. Briefly: saturation binding analysed with the program Ligand, crude pituitary membrane pellets (FIG. 2).
Assay [12] concerns the target pituitary GHRH receptor (ovine or bovine, not said which at the place). Briefly: charcoal-dextran binding assay on pituitary membrane preparations solubilized in CHAPS without prebound ligand; the ligand is not named.

T2 sequence (P47872 23-440): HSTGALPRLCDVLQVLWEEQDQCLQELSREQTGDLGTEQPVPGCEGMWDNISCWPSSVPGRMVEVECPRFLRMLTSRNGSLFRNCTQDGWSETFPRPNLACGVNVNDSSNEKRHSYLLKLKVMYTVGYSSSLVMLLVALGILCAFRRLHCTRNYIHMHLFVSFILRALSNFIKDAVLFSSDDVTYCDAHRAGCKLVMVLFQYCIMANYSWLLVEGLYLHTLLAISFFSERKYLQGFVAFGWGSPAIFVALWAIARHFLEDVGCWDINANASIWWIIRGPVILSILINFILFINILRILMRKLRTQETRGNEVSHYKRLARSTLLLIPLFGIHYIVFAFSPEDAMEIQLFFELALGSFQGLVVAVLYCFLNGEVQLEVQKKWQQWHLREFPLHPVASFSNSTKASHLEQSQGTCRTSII

As for `O[C@H](CS)[C@H](O)CS` (racemic) [dithiothreitol], the “effect on specific binding in the GHRH assay” value in the assay with GHRH receptor (GHRH-R) (preincubation with 1 mM) was “completely eliminated”.

On to “immobilized streptavidin (from UniProt P22629) (tool reagent)”, for which the percent of product bound in assay [1] and in assay [2] was over 90% throughout.

As for “[His^1, Nle^27 ]-GHRH-(1-32)-NH2 [GHRHa]”, the Kd on GHRH receptor (GHRH-R) (crude ovine pituitary membranes, program Ligand, read-out: Kd, saturation binding to a single high affinity site) was 0.158 nM and ~0.16 nM. Besides, the “displacement of both photoprobes from membrane pellets” value with GHRH-R (55 kDa band) (10 nM GHRHa) was “totally displaced”. In addition, the “effect on photo-cross-linked 55 kDa band” value in the assay on GHRH-R (55 kDa band) (10 nM GHRHa, 125I-GHRHa-ANB-NOS probe) is listed as “completely eliminated”.

On to “^125 I-GHRHa: radioiodinated GHRHa probe, monoiodinated and HPLC purified (YADAIFTNSY(125I)RKVLGQLSARKLLQDI[Nle]SRQQG-NH2)”, for which, in the assay with GHRH receptor (GHRH-R), the “comparison with commercially available iodinated human GHRH” value is on record as “slightly better specific binding”.

In assay [3], “PACAP (pituitary adenylate cyclase activating peptide)” yielded a Ki of 30 nM.

On to secretin, for which, in assay [4], the “effect on binding of iodinated GHRH” value is on record as “unaffected”.

GHRH(1-29)-NH2: the “inhibition of 125I-secretin binding” value in [5] is on record as 20%.

Turning to “monobiotinylated GHRHa: GHRHa biotinylated at lysine 12 or 21 with NHS-LC-Biotin, mono form resolved on HPLC (YADAIFTNSY(iodo)RKVLGQLSARKLLQDI[Nle]SRQQG-NH2; also: NHS-LC-Biotin on one of lysines 12 and 21)”, the “receptor binding affinity compared to GHRHa” value with GHRH receptor (GHRH-R) is recorded as “two-fold reduced”.

As for “GHRH: growth hormone releasing hormone; the competitor in FIG. 17 is GHRHa”, at GHRH receptor (GHRH-R) (ovine pituitary membranes, displacement data of FIG. 17, read-out: KD for GHRH binding in pituitary), the Kd was 0.2 nM.

Take `C[C@H](N)C(=O)NCC(=O)N[C@H]1CSSC[C@@H](C(=O)O)NC(=O)[C@H](CO)NC(=O)[C@H]([C@@H](C)O)NC(=O)[C@H](Cc2ccccc2)NC(=O)[C@H]([C@@H](C)O)NC(=O)[C@H](CCCCN)NC(=O)[C@H](Cc2c[nH]c3ccccc23)NC(=O)[C@H](Cc2ccccc2)NC(=O)[C@H](Cc2ccccc2)NC(=O)[C@H](CC(N)=O)NC(=O)[C@H](CCCCN)NC1=O` [somatostatin]: the “effect on binding of iodinated GHRH” value in assay [4] is “unaffected”.

Regarding “His^1, ^125 I-Tyr^10,Nle^27 human GHRH(1-29)NH2”, the “binding of radioligand to HAP cDNA transfected COS cell membranes” value in assay [4] (not seen in angiotensin receptor cDNA transfected COS cells) is “specific, high-affinity binding”.

For “[His 1, Nle27, Biotin-Lys4 1 ]-GHRH-(1-41)-NH2 [GHRHb]”, the “receptor binding affinity compared to GHRHa” value in the assay on GHRH receptor (GHRH-R) is listed as “comparable to GHRHa”.

Regarding “PHM: competing peptide of the VIP family (HADGVFTSDFSKLLGQLSAKKYLESLM; ends and bridges not checked; UniProt P01282 81-107, looked up)”, in [4], the “effect on binding of iodinated GHRH” value is given as “unaffected”.

Take parathyroid hormone: the “effect on binding of iodinated GHRH” value in [4] is “unaffected”.

Turning to calcitonin, the “effect on binding of iodinated GHRH” value in assay [4] is on record as “unaffected”.

Regarding “[His1, Nle27]-GHRH-(1-32)-NH2 (from UniProt P01286) (peptide)”, the fold lower displacing concentration than VIP or PACAP in assay [6] is 500 fold and 1000 fold; in assay [7] it was 500 fold and 1000 fold. Also, the Kd is 0.158 nM in assay [8]; 0.2 nM in assay [9]; 0.16 nM in [10]; 0.15 nM in assay [11]; 500 nM in [12].

Consider vasoactive intestinal peptide [VIP], for which, in the assay with GHRH receptor (GHRH-R), the “competition for the 125I-GHRHa binding site” value was “no competition; also recorded: did not compete” and the “displacement of GHRH in ovine pituitary” value is reported as “not”. Also, the “effect on photo-cross-linked 55 kDa band” value in the assay on GHRH-R (55 kDa band) (100 nM VIP) is given as “unaffected”. The “effect on binding of iodinated GHRH” value in assay [4] is listed as “unaffected; also recorded: no effect”. Moreover, the “inhibition of 125I-secretin binding” value in assay [5] is listed as 20%.

Take `CC[C@H](C)[C@H](NC(=O)CNC(=O)[C@H](CC(=O)O)NC(=O)[C@H](CO)NC(=O)[C@@H](N)Cc1c[nH]cn1)C(=O)N[C@@H](Cc1ccccc1)C(=O)N[C@H](C(=O)N[C@@H](CC(=O)O)C(=O)N[C@@H](CO)C(=O)N[C@@H](Cc1ccc(O)cc1)C(=O)N[C@@H](CO)C(=O)N[C@@H](CCCNC(=N)N)C(=O)N[C@@H](Cc1ccc(O)cc1)C(=O)N[C@@H](CCCNC(=N)N)C(=O)N[C@@H](CCCCN)C(=O)N[C@@H](CCC(N)=O)C(=O)N[C@@H](CCSC)C(=O)N[C@@H](C)C(=O)N[C@H](C(=O)N[C@@H](CCCCN)C(=O)N[C@@H](CCCCN)C(=O)N[C@@H](Cc1ccc(O)cc1)C(=O)N[C@@H](CC(C)C)C(=O)N[C@@H](C)C(=O)N[C@@H](C)C(=O)N[C@H](C(=O)N[C@@H](CC(C)C)C(=O)NCC(=O)N[C@@H](CCCCN)C(=O)N[C@@H](CCCNC(=N)N)C(=O)N[C@@H](Cc1ccc(O)cc1)C(=O)N[C@@H](CCCCN)C(=O)N[C@@H](CCC(N)=O)C(=O)N[C@@H](CCCNC(=N)N)C(=O)N[C@H](C(=O)N[C@@H](CCCCN)C(=O)N[C@@H](CC(N)=O)C(=O)N[C@@H](CCCCN)C(N)=O)C(C)C)C(C)C)C(C)C)[C@@H](C)O` [PACAP, pituitary adenylate cyclase activating peptide]: in the assay on GHRH receptor (GHRH-R), the “competition for the 125I-GHRHa binding site” value is recorded as “no competition; also recorded: did not compete” and the “displacement of GHRH in ovine pituitary” value is given as “significant displacement”.

Regarding `Nc1nc2c(ncn2[C@@H]2O[C@H](COP(=O)(O)OP(=O)(O)OP(O)(O)=S)[C@@H](O)[C@H]2O)c(=O)[nH]1` [GTPγS], the “displacement of both photoprobes from membrane pellets” value in the assay on GHRH-R (55 kDa band) (50 μM GTPγS) is listed as “partially displaced”.

As to “^125 I-GHRHa -ANB-NOS: GHRHa coupled to N-5-azido-2-nitrobenzoyloxysuccinimide at lysine 12 or 21, then iodinated; photoprobe (YADAIFTNSY(125I)RKVLGQLSARKLLQDI[Nle]SRQQG-NH2; also: N-5-azido-2-nitrobenzoyl (ANB-NOS) on lysine 12 or 21)”, on GHRH-R (55 kDa band) (ovine pituitary membrane pellets, gamma-counting), the “affinity of photoprobe binding” value was “about one”.
